# T1: GafA (Rhodobacter capsulatus, UniProt D5AUH1 1-382)
# T1 sequence: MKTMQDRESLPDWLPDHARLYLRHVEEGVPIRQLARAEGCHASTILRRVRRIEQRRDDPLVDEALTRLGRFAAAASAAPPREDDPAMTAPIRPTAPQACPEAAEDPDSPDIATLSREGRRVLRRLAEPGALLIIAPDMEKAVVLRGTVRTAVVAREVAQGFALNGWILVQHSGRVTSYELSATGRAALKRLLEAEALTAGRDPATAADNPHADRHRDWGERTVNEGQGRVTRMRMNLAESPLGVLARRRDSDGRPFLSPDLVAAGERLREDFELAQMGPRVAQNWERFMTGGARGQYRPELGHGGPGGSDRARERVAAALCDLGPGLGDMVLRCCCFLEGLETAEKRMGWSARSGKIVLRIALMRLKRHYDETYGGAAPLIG
# T2: CtrA (Rhodobacter capsulatus, UniProt D5ATW9 1-237)
# T2 sequence: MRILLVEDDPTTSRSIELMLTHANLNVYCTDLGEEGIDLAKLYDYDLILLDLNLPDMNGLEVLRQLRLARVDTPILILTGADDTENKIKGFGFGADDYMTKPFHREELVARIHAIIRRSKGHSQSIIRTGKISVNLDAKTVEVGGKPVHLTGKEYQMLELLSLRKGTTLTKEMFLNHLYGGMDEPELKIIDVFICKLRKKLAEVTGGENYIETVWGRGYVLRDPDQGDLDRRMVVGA
# T3: GtaR (Rhodobacter capsulatus, UniProt D5AM23 1-203)
# T3 sequence: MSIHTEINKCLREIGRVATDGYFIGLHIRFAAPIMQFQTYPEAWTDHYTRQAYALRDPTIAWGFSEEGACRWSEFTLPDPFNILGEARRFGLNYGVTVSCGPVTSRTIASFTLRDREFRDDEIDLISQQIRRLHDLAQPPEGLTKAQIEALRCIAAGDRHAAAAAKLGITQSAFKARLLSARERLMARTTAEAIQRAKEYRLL
# Legend:
# [1] = target: T1, GafA; test: EMSA; 2 uM GafA; 80 nM Cy5-dsDNA, 25 mM HEPES pH 8.0, 50 mM K-glutamate, 50 mM MgSO4, 1 mM DTT, 0.1 mM EDTA, 0.05% Triton X-100, 1 ug poly dI:dC, 4% glycerol, 30 C 15 min; GtaR: 10 mM HEPES pH 8, 40 mM NaCl, 37 C 30 min; PCR products: pGTA 2 ng/ul, unlabelled 100 ng; conditions: protein: recombinant; tags: His6 (pCMF176) or His6-MBP (pCMF193); label: 5'-Cy5 (one strand); blunt
# [2] = target: T2, CtrA; test: EMSA; 80 nM Cy5-dsDNA, 25 mM HEPES pH 8.0, 50 mM K-glutamate, 50 mM MgSO4, 1 mM DTT, 0.1 mM EDTA, 0.05% Triton X-100, 1 ug poly dI:dC, 4% glycerol, 30 C 15 min; GtaR: 10 mM HEPES pH 8, 40 mM NaCl, 37 C 30 min; PCR products: pGTA 2 ng/ul, unlabelled 100 ng; conditions: protein: recombinant; tags: His6 (pEHisTEV, N-terminal); chain copies: 2; label: 5'-Cy5 (one strand); blunt
# [3] = target: T3, GtaR; test: EMSA; binding detected at 375 nM protein or above; GtaR buffer; 80 nM Cy5-dsDNA, 25 mM HEPES pH 8.0, 50 mM K-glutamate, 50 mM MgSO4, 1 mM DTT, 0.1 mM EDTA, 0.05% Triton X-100, 1 ug poly dI:dC, 4% glycerol, 30 C 15 min; GtaR: 10 mM HEPES pH 8, 40 mM NaCl, 37 C 30 min; PCR products: pGTA 2 ng/ul, unlabelled 100 ng; conditions: protein: recombinant; tags: His6 (pEHisTEV, N-terminal); chain copies: 2; label: 5'-Cy5 (one strand); blunt
Binder,binding result [1],Kd [2],binding result [3]
pGTA3 (dsDNA) DNA 1: GCGCCGCGGGTGACCGTGTGCGCTTTTTTCATTTCGCTCGTGCGGACAGG DNA 2: CCTGTCCGCACGAGCGAAATGAAAAAAGCGCACACGGTCACCCGCGGCGC,no binding,–,–
pGTA4 (dsDNA) DNA 1: TTCATTTCGCTCGTGCGGACAGGCATGAGAGGCGGGTCACGCAAGACATG DNA 2: CATGTCTTGCGTGACCCGCCTCTCATGCCTGTCCGCACGAGCGAAATGAA,no binding,–,–
pGTA1 (dsDNA) DNA 1: TCCGGGGTTTTTTCTTTTCAGCGGGTGCAACCCTGAATATAGCACTTGAC DNA 2: GTCAAGTGCTATATTCAGGGTTGCACCCGCTGAAAAGAAAAAACCCCGGA,no binding,–,–
pGTA5 (dsDNA) DNA 1: GGCATGCTAGGAGAGGTGGGCAAGCGCCGCGGGTGACCGTGTGCGCTTTT DNA 2: AAAAGCGCACACGGTCACCCGCGGCGCTTGCCCACCTCTCCTAGCATGCC,no binding,–,–
pGafA_50 (gafA promoter) (dsDNA) DNA 1: TCGAGATCGCCCCATTTCTTAACCAAGGGGTAACCAAAGCAACCCACGGT DNA 2: ACCGTGGGTTGCTTTGGTTACCCCTTGGTTAAGAAATGGGGCGATCTCGA,–,54.9 nM,binds
